Patent US20060264369, “Aptamers to von Willebrand Factor and their use as thrombotic disease therapeutics” (published 2006)
Residue numbers refer to the chain shown, from its start.

B1: AMX200.G11 (ssDNA)
DNA: CTACCTACGATCTGACTAGCGGAACGAGAATGCTGATGGATTGCTCAGGTCTGCTGGCTGCTTACTCTCATGTAGTTCC
B2: AMX200.D11 (ssDNA)
DNA: B1 DNA with C25T, G26A
B3: AMX200.D8 (ssDNA)
DNA: B1 DNA with C25T, C33T
B4: AMX200.A7 (ssDNA)
DNA: B1 DNA with C25T, C44T
B5: AMX200.B9 (ssDNA)
DNA: B1 DNA with C25T, G57A
B6: AMX200.B1 (ssDNA)
DNA: B1 DNA with C25T, T45C
B7: AMX200.B8 (ssDNA)
DNA: B1 DNA with C25T, C33T, A36G
B8: AMX200.F9 (ssDNA)
DNA: B1 DNA with C25T, A29G, C44G
B9: AMX200.E8 (ssDNA)
DNA: B1 DNA with C25T, A29G, A36G, C54T
B10: AMX199.G5 (ssDNA)
DNA: CTACCTACGATCTGACTAGCGAAACACTAGGTTGGTTAGGATTGGTGTGTTCCCGCCCTGCTTACTCTCATGTAGTTCC
B11: AMX199.F11 (ssDNA)
DNA: B10 DNA with C52T, C54T, C57T
B12: AMX200.A11 (ssDNA)
DNA: CTACCTACGATCTGACTAGCTGAGTAGTTAGTAACTTTTTATTATGGTTTGGTGGGTCTGGCTTACTCTCATGTAGTTCC
B13: AMX200.H8 (ssDNA)
DNA: B12 DNA with T29C, C35T, T57C
B14: AMX199.F8 (ssDNA)
DNA: CTACCTACGATCTGACTAGCAAGGGGATTGGCTCCGGGTCTGGCGTGCTTGGCACCTCTGGCTTACTCTCATGTAGTTCC
B15: AMX199.B6 (ssDNA)
DNA: B14 DNA with C53T, T59C
B16: AMX199.D8 (ssDNA)
DNA: B14 DNA with C55T, C58T, T59C
B17: AMX200.E10 (ssDNA)
DNA: B14 DNA with T50C, C58T
B18: AMX202.H10 (ssDNA)
DNA: B1 DNA with C25T, T31G, A36G
B19: AMX202.B8 (ssDNA)
DNA: B1 DNA with C25T, A29T
B20: AMX202.D6 (ssDNA)
DNA: B1 DNA with C25T, T31G
B21: AMX202.A3 (ssDNA)
DNA: B1 DNA with C25T, A30G, T31C
B22: AMX202.F6 (ssDNA)
DNA: B14 DNA with T50C, C58T, T59C

Molecular target: von Willebrand factor A1 domain (human) (Homo sapiens, UniProt P04275 SEQ:13-246)
Sequence (P04275 1238-1471 T1381A): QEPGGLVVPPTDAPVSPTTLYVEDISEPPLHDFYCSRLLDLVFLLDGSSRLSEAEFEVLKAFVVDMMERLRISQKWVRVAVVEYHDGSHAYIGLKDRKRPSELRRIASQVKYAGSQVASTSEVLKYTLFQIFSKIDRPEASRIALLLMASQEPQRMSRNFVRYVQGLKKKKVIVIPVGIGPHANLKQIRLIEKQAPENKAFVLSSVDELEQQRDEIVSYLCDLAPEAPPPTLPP
Assay: filter; 100 nM protein
Procedure: All unique clones were assayed in a 3-point dot blot screen (no protein target control, 100 nM human vWF A1 domain (SEQ ID NO 5), or 100 nM rabbit vWF A1 domain (SEQ ID NO 6). The data are presented in the third and fourth columns of Table 14 below as the ratio of the fraction of the aptamer bound to the nitrocellulose in the presence of the target protein to the fraction of aptamer bound in the absence of the target protein.

Row | Binder | binding signal
1 | B1 | 1.73 ratio to no protein
2 | B2 | 3.34 ratio to no protein
3 | B3 | 2.86 ratio to no protein
4 | B4 | 0.97 ratio to no protein
5 | B5 | 2.54 ratio to no protein
6 | B6 | 4.01 ratio to no protein
7 | B7 | 4.13 ratio to no protein
8 | B8 | 0.97 ratio to no protein
9 | B9 | 1.04 ratio to no protein
10 | B10 | 1.41 ratio to no protein
11 | B11 | 1.44 ratio to no protein
12 | B12 | 1.49 ratio to no protein
13 | B13 | 1.86 ratio to no protein
14 | B14 | 1.78 ratio to no protein
15 | B15 | 2.01 ratio to no protein
16 | B16 | 1.89 ratio to no protein
17 | B17 | 1.69 ratio to no protein
18 | B18 | 1.92 ratio to no protein
19 | B19 | 1.66 ratio to no protein
20 | B20 | 1.94 ratio to no protein
21 | B21 | 2.28 ratio to no protein
22 | B22 | 1.49 ratio to no protein
